Measured values from patent US20200277366A1 (UCB, published 2020).
Where a chain is given by its changes, count along the chain named.

Tests used:
cynomolgus serum albumin [1] = biological target: T1, cynomolgus serum albumin (cynomolgus, UniProt A2V9Z4 25-608); test: SPR (Biacore T200), TrYbe 18B captured by anti-human F(ab')2, cynomolgus albumin titrated 100 nM to 3.125 nM
T1 construct: also called Cynomolgus Albumin; CSA
Procedure: (§1) BIA (Biamolecular Interaction Analysis) was performed using a Biacore T200 (GE Healthcare). Affinipure F(ab′)2 Fragment goat anti-human IgG, F(ab′)2 fragment specific (Jackson ImmunoResearch) was immobilised on a CM5 Sensor Chip via amine coupling chemistry to a capture level of ˜5000 response units (RUs). HBS-EP buffer (10 mM HEPES pH 7.4, 0.15 M NaCl, 3 mM EDTA, 0.05% Surfactant P20, GE Healthcare) was used as the running buffer with a flow rate of 10 μL/min. […] The surface was regenerated by 2×10 μL injection of 50 mM HCl, interspersed by a 5 μL injection of 5 mM NaOH at a flowrate of 10 L/min. Background subtraction binding curves were analysed using the T200evaluation software (version 1.0) following standard procedures. Kinetic parameters were determined from the fitting algorithm.

cynomolgus IL-17A [2] = biological target: T2, cynomolgus IL-17A (cynomolgus, UniProt A0A2K5TTB0 24-155); test: SPR (Biacore T200), TrYbe 18B captured; column head prints KD(nM), but the KD(M) column shows the value is in pM; kd at the instrument's limit
T2 construct: also called cIL-17A; cynoIL-17A
Procedure: as §1

cynomolgus serum albumin [3] = biological target: T1, cynomolgus serum albumin; test: SPR (Biacore T200), TrYbe 18B captured; column head prints KD(nM), but the KD(M) column shows the value is in pM
Procedure: as §1

cynomolgus IL-17F [4] = biological target: T3, cynomolgus IL-17F (cynomolgus, UniProt G7P4V0 31-163); test: as above
T3 construct: also called cyno IL-17F
T3 sequence: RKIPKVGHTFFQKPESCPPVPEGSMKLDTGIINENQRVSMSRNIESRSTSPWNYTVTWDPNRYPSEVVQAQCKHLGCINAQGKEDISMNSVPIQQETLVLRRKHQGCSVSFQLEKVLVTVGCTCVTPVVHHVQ
Procedure: as §1

cynomolgus TNF-alpha [5] = biological target: T4, cynomolgus TNF-alpha (cynomolgus, UniProt P79337 77-233); test: as above
T4 construct: also called cyno TNF; cTNF
Procedure: as §1

human IL-17A [6] = biological target: T5, human IL-17A (human, UniProt Q16552 24-155); test: SPR (Biacore T200), TrYbe 18B captured by anti-human F(ab')2, human IL-17A titrated 5 nM to 0.15625 nM; footnote: dissociation limited due to limit of the instrument
T5 construct: also called hIL-17A
Procedure: as §1, with “10 μL/min.” for “10 L/min.”

murine TNF-alpha = biological target: T6, murine TNF-alpha (mouse, UniProt P06804 80-235); test: L929 cell killing assay with murine TNF-α (N=3); told in words
T6 construct: also called mouse TNF; Murine TNF-α
T6 sequence (looked up): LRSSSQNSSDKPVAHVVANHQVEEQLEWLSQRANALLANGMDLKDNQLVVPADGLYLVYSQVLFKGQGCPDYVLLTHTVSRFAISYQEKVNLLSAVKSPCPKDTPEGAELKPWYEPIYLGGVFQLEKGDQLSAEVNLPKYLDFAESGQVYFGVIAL

cynomolgus IL-17F [7] = biological target: T3, cynomolgus IL-17F; test: SPR (Biacore T200), TrYbe 18B captured by anti-human F(ab')2, cynomolgus IL-17F titrated 40 nM to 1.25 nM
Procedure: as §1

cynomolgus IL-17A [8] = biological target: T2, cynomolgus IL-17A; test: SPR (Biacore T200), TrYbe 18B captured by anti-human F(ab')2, cynomolgus IL-17A titrated 10 nM to 0.3125 nM; kd at the instrument's limit
Procedure: as §1

human IL-17A [9] = biological target: T5, human IL-17A; test: SPR (Biacore T200), TrYbe 18B captured by anti-human F(ab')2, human IL-17A titrated 5 nM to 0.15625 nM
Procedure: as §1, with “10 μL/min.” for “10 L/min.”

cynomolgus IL-17A [10] = biological target: T2, cynomolgus IL-17A; test: SPR (Biacore T200), TrYbe 18B captured by anti-human F(ab')2, cynomolgus IL-17A titrated 10 nM to 0.3125 nM
Procedure: as §1

cynomolgus IL-17A [11] = biological target: T2, cynomolgus IL-17A; test: SPR (Biacore T200), TrYbe 18B captured by anti-human F(ab')2, cynomolgus IL-17A titrated 10 nM to 0.3125 nM; footnote: dissociation limited due to limit of the instrument
Procedure: as §1

cynomolgus TNF-alpha [12] = biological target: T4, cynomolgus TNF-alpha; test: cell-based or functional assay
human TNF-alpha [13] = biological target: T7, human TNF-alpha (human, UniProt P01375 77-233); test: cell-based or functional assay
human TNF-alpha [14] = biological target: T7, human TNF-alpha; test: SPR (Biacore T200), TrYbe 18B captured by anti-human F(ab')2, human TNF titrated 5 nM to 0.15625 nM
Procedure: as §1, with “10 μL/min.” for “10 L/min.”

human IL-17A [15] = biological target: T5, human IL-17A; test: SPR (Biacore T200), TrYbe 18B captured by anti-human F(ab')2, human IL-17A titrated 5 nM to 0.15625 nM; kd at the instrument's limit
Procedure: as §1, with “10 μL/min.” for “10 L/min.”

cynomolgus TNF-alpha [16] = biological target: T4, cynomolgus TNF-alpha; test: SPR (Biacore T200), TrYbe 18B captured by anti-human F(ab')2, cynomolgus TNF titrated 5 nM to 0.15625 nM
Procedure: as §1

human serum albumin = biological target: T8, human serum albumin (human, UniProt P02768 25-609); test: SPR (Biacore T200), TrYbe 18B captured by anti-human F(ab')2, HSA titrated 100 nM to 3.125 nM
T8 construct: also called HSA; Human Albumin
Procedure: as §1, with “10 μL/min.” for “10 L/min.”

human IL-17F = biological target: T9, human IL-17F (human, UniProt Q96PD4 31-163); test: SPR (Biacore T200), TrYbe 18B captured by anti-human F(ab')2, human IL-17F titrated 10 nM to 0.3125 nM
T9 sequence (looked up): T3 sequence with E22G, T29I, K73R, H74N, L100V, V129I
Procedure: as §1, with “10 μL/min.” for “10 L/min.”

B1: Fab496.g3-(HC)dsscFv(HL)2109 / Fab496.g3-(LC)dsscFv(HL)645 (TrYbe 18B) (other)
heavy: EVQLVESGGGLVQPGGSLRLSCAASGFTFSDYNMAWVRQAPGKGLEWVATITYEGRNTYYRDSVKGRFTISRDNAKNSLYLQMNSLRAEDTAVYYCASPPQYYEGSIYRLWFAHWGQGTLVTVSSASTKGPSVFPLAPSSKSTSGGTAALGCLVKDYFPEPVTVSWNSGALTSGVHTFPAVLQSSGLYSLSSVVTVPSSSLGTQTYICNVNHKPSNTKVDKKVEPKSCSGGGGSGGGGSEVQLVESGGGLVKPGGSLRLSCAASGYTFTDNYIHWVRQAPGKCLEWIGYINPSSAYAHYNEKFKTRFTISVDKAKNSAYLQMNSLRAEDTAVYYCTRRYYSAMPFAYWGQGTLVTVSSGGGGSGGGGSGGGGSGGGGSDIQMTQSPSSLSASVGDRVTITCRASEDIYSGLAWYQQKPGKVPKLLIYDSSTLHTGVPSRFSGTGSGTDYTLTISSLQPEDVATYFCQQNYDFPLTFGCGTKLEIKRT
light: AIQLTQSPSSLSASVGDRVTITCRADESVRTLMHWYQQKPGKAPKLLIYLVSNSEIGVPDRFSGSGSGTDFRLTISSLQPEDFATYYCQQTWSDPWTFGQGTKVEIKRTVAAPSVFIFPPSDEQLKSGTASVVCLLNNFYPREAKVQWKVDNALQSGNSQESVTEQDSKDSTYSLSSTLTLSKADYEKHKVYACEVTHQGLSSPVTKSFNRGECSGGGGSGGGGSEVQLLESGGGLVQPGGSLRLSCAVSGIDLSNYAINWVRQAPGKCLEWIGIIWASGTTFYATWAKGRFTISRDNSKNTVYLQMNSLRAEDTAVYYCARTVPGYSTAPYFDLWGQGTLVTVSSGGGGSGGGGSGGGGSGGGGSDIQMTQSPSSVSASVGDRVTITCQSSPSVWSNFLSWYQQKPGKAPKLLIYEASKLTSGVPSRFSGSGSGTDFTLTISSLQPEDFATYYCGGGYSSISDTTFGCGTKVEIKRT
notes: Tri-specific Fab-2xdsscFv (TrYbe) with no Fc; Stably expressed in CHO; also called Fab496.g3-(HC)dsHLscFv2109 (LC)dsHLscFv645
B1 was tested. Which Kd (cynomolgus serum albumin [1]) did it give?
The Kd was 2720 pM.

What about the koff (cynomolgus serum albumin [1]) of the same binder?
Its koff is 0.000159 s⁻¹.

What about the kon (cynomolgus serum albumin [1]) of the same binder?
Its kon is 58300 M⁻¹ s⁻¹.

And the Kd (cynomolgus IL-17A [2])?
Its Kd is 5.99 pM.

And the Kd (cynomolgus serum albumin [3])?
Its Kd is 2720 pM.

What about the Kd (cynomolgus IL-17F [4]) of the same binder?
The Kd was 288 pM.

And the Kd (cynomolgus TNF-alpha [5])?
The Kd was 7.16 pM.

What about the koff (human IL-17A [6]) of the same binder?
Its koff is ≤ 1e-05 s⁻¹.

Does B1 bind (murine TNF-alpha)?
Result: no binding

What about the Kd (cynomolgus IL-17F [7]) of the same binder?
Its Kd is 288 pM.

And the koff (cynomolgus IL-17F [7])?
The koff was 0.000167 s⁻¹.

And the kon (cynomolgus IL-17F [7])?
Its kon is 582000 M⁻¹ s⁻¹.

And the Kd (cynomolgus IL-17A [8])?
The Kd was ≤ 5.99 pM.

And the kon (human IL-17A [9])?
The kon was 5.52e+06 M⁻¹ s⁻¹.

What about the kon (cynomolgus IL-17A [10]) of the same binder?
Its kon is 1.67e+06 M⁻¹ s⁻¹.

And the koff (cynomolgus IL-17A [11])?
Its koff is ≤ 1e-05 s⁻¹.

And the “Mean EC50, L929 cell survival (CellTiter-Glo) with Actinomycin D and cynomolgus TNF-α” value (cynomolgus TNF-alpha [12])?
Its value is 4.97 pM.

And the “Mean EC50, L929 cell survival (CellTiter-Glo) with Actinomycin D and human TNF-α” value (human TNF-alpha [13])?
The value was 5.87 pM.

And the Kd (human TNF-alpha [14])?
Its Kd is 11.6 pM.

And the koff (human TNF-alpha [14])?
The koff was 6.43e-05 s⁻¹.

And the kon (human TNF-alpha [14])?
Its kon is 5.54e+06 M⁻¹ s⁻¹.

And the Kd (human IL-17A [15])?
Its Kd is ≤ 1.81 pM.

And the Kd (cynomolgus TNF-alpha [16])?
Its Kd is 7.16 pM.

And the koff (cynomolgus TNF-alpha [16])?
Its koff is 6.38e-05 s⁻¹.

What about the kon (cynomolgus TNF-alpha [16]) of the same binder?
The kon was 8.9e+06 M⁻¹ s⁻¹.

What about the Kd (human serum albumin) of the same binder?
Its Kd is 1740 pM.

And the koff (human serum albumin)?
The koff was 0.000135 s⁻¹.

And the kon (human serum albumin)?
The kon was 77500 M⁻¹ s⁻¹.

And the Kd (human IL-17F)?
Its Kd is 7.51 pM.

And the koff (human IL-17F)?
The koff was 3.8e-05 s⁻¹.

What about the kon (human IL-17F) of the same binder?
Its kon is 5.06e+06 M⁻¹ s⁻¹.
